The values that follow are results of earlier work, collected in paper PMC10382592.

The target of this data set is Cys23 (UniProt position 23, FIKPTCPYCRR).

Regarding “Glutaredoxin-1 (GLRX, thioltransferase) (Homo sapiens (inferred from the title of ref 11, 'Thiotransferase in human red blood cells'; the sentence itself refers to mammalian GLRX))”, the pKa entry was “approximately 3.5”.
